Measured values published in US20160310424A1 (Stanford University, published 2016).

Columns and labels:
[1] = target: T1, low-density lipoprotein receptor-related protein 6 (LRP6) (UniProt O75581 20-1370, limits assumed); assay: binding affinity stated in the FIG. 17 legend on the pull-down assays; method behind the value not described
T1 sequence (looked up): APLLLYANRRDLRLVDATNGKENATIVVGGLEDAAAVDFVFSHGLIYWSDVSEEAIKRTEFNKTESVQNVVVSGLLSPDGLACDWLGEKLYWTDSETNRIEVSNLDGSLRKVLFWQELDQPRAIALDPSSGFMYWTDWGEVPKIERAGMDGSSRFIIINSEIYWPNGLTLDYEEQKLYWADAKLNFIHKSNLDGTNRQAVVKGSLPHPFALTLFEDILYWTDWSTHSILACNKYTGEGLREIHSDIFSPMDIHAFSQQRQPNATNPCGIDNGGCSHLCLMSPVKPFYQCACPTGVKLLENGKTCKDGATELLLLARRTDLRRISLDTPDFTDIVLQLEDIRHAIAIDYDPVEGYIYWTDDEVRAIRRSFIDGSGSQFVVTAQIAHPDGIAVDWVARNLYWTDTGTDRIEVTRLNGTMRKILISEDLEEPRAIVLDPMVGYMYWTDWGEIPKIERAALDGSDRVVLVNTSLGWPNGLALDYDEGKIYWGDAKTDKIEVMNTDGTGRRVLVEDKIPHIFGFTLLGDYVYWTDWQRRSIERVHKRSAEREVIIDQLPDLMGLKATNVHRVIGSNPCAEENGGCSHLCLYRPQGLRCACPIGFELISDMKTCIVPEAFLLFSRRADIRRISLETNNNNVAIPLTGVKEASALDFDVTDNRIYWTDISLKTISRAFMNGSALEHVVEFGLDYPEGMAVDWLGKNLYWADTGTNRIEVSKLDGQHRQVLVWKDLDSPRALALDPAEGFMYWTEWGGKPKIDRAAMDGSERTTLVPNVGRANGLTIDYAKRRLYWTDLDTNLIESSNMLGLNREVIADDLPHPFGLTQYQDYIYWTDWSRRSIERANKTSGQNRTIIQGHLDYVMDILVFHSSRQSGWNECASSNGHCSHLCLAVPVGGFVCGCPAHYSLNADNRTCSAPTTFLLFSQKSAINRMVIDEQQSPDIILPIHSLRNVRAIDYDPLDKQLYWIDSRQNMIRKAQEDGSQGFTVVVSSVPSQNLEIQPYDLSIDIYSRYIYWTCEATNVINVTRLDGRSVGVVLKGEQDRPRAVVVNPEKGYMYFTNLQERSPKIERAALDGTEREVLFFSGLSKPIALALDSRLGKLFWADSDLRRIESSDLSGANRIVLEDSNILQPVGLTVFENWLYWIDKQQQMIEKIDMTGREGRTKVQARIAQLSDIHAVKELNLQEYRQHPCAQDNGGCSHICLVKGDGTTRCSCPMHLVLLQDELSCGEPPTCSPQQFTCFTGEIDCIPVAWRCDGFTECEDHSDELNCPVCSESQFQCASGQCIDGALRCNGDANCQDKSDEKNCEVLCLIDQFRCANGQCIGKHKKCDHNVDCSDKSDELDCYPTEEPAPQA

Frizzled = target: T2, Frizzled; assay: binding affinity stated with the liposome/Frizzled pull-down competition assay; method behind the value not described
T2 construct: also called Fz; Frizzled, the WNT receptor

Kd [1]: ~9 nM
Kd (Frizzled): ~3.6 nM
B1: Human Wnt3a polypeptide (ligand)
chain: SYPIWWSLAVGPQYSSLGSQPILCASIPGLVPKQLRFCRNYVEIMPSVAEGIKIGIQECQHQFRGRRWNCTTVHDSLAIFGPVLDKATRESAFVHAIASAGVAFAVTRSCAEGTAAICGCSSRHQGSPGKGWKWGGCSEDIEFGGMVSREFADARENRPDARSAMNRHNNEAGRQAIASHMHLKCKCHGLSGSCEVKTCWWSQPDFRAIGDFLKDKYDSASEMVVEKHRESRGWVETLRPRYTYFKVPTERDLVYYEASPNFCEPNPETGSFGTRDRTCNVSSHGIDGCDLLCCGRGHNARAERRREKCRCVFHWCCYVSCQECTRVYDVHTCK
modifications: palmitoylated at S209 (paragraph 228 instead reports palmitoylation at S211 and probable myristoleylation at S139 and S181); glycosylated
notes: Secreted from CHO cells and purified on blue Sepharose; In the pull-down assays it was reconstituted into DMPC:cholesterol liposomes (L-Wnt3a); also called L-Wnt3a; L-WNT3A
